B1: ELK1 (protein, UniProt P19419 1-428, looked up)
ETS domain-containing protein …: MDPSVTLWQFLLQLLREQGNGHIISWTSRDGGEFKLVDAEEVARLWGLRKNKTNMNYDKLSRALRYYYDKNIIRKVSGQKFVYKFVSYPEVAGCSTEDCPPQPEVSVTSTMPNVAPAAIHAAPGDTVSGKPGTPKGAGMAGPGGLARSSRNEYMRSGLYSTFTIQSLQPQPPPHPRPAVVLPSAAPAGAAAPPSGSRSTSPSPLEACLEAEEAGLPLQVILTPPEAPNLKSEELNVEPGLGRALPPEVKVEGPKEELEVAGERGFVPETTKAEPEVPPQEGVPARLPAVVMDTAGQAGGHAASSPEISQPQKGRKPRDLELPLSPSLLGGPGPERTPGSGSGSGLQAPGPALTPSLLPTHTLTPVLLTPSSLPPSIHFWSTLSPIAPRSPAKLSFQFPSSGSAQVHIPSISVDGLSTPVVLSPGPQKP
B2: EN2 (protein, UniProt P19622 1-333, looked up)
Homeobox protein engrailed-2: MEENDPKPGEAAAAVEGQRQPESSPGGGSGGGGGSSPGEADTGRRRALMLPAVLQAPGNHQHPHRITNFFIDNILRPEFGRRKDAGTCCAGAGGGRGGGAGGEGGASGAEGGGGAGGSEQLLGSGSREPRQNPPCAPGAGGPLPAAGSDSPGDGEGGSKTLSLHGGAKKGGDPGGPLDGSLKARGLGGGDLSVSSDSDSSQAGANLGAQPMLWPAWVYCTRYSDRPSSGPRSRKPKKKNPNKEDKRPRTAFTAEQLQRLKAEFQTNRYLTEQRRQSLAQELSLNESQIKIWFQNKRAKIKKATGNKNTLAVHLMAQGLYNHSTTAKEGKSDSE
B3: EID1 (protein, UniProt Q9Y6B2 1-187, looked up)
EP300-interacting inhibitor …: MSEMAELSELYEESSDLQMDVMPGEGDLPQMEVGSGSRELSLRPSRSGAQQLEEEGPMEEEEAQPMAAPEGKRSLANGPNAGEQPGQVAGADFESEDEGEEFDDWEDDYDYPEEEQLSGAGYRVSAALEEADKMFLRTREPALDGGFQMHYEKTPFDQLAFIEELFSLMVVNRLTEELGCDEIIDRE
B4: DP-1 (protein, UniProt Q14186 1-410, looked up)
Transcription factor Dp-1: MAKDAGLIEANGELKVFIDQNLSPGKGVVSLVAVHPSTVNPLGKQLLPKTFGQSNVNIAQQVVIGTPQRPAASNTLVVGSPHTPSTHFASQNQPSDSSPWSAGKRNRKGEKNGKGLRHFSMKVCEKVQRKGTTSYNEVADELVAEFSAADNHILPNESAYDQKNIRRRVYDALNVLMAMNIISKEKKEIKWIGLPTNSAQECQNLEVERQRRLERIKQKQSQLQELILQQIAFKNLVQRNRHAEQQASRPPPPNSVIHLPFIIVNTSKKTVIDCSISNDKFEYLFNFDNTFEIHDDIEVLKRMGMACGLESGSCSAEDLKMARSLVPKALEPYVTEMAQGTVGGVFITTAGSTSNGTRFSASDLTNGADGMLATSSNGSQYSGSRVETPVSYVGEDDEEDDDFNENDEDD
B5: AES (protein, UniProt Q08117 1-197, looked up)
TLE family member 5: MMFPQSRHSGSSHLPQQLKFTTSDSCDRIKDEFQLLQAQYHSLKLECDKLASEKSEMQRHYVMYYEMSYGLNIEMHKQAEIVKRLNGICAQVLPYLSQEHQQQVLGAIERAKQVTAPELNSIIRQQLQAHQLSQLQALALPLTPLPVGLQPPSLPAVSAGTGLLSLSALGSQAHLSKEDKNGHDGDTHQEDDGEKSD
B6: ENY2 (protein, UniProt Q9NPA8 1-101, looked up)
Transcription and mRNA export …: MVVSKMNKDAQMRAAINQKLIETGERERLKELLRAKLIECGWKDQLKAHCKEVIKEKGLEHVTVDDLVAEITPKGRALVPDSVKKELLQRIRTFLAQHASL
B7: EDF1 (protein, UniProt O60869 2-148, looked up)
Endothelial …: AESDWDTVTVLRKKGPTAAQAKSKQAILAAQRRGEDVETSKKWAAGQNKQHSITKNTAKLDRETEELHHDRVTLEVGKVIQQGRQSKGLTQKDLATKINEKPQVIADYESGRAIPNNQVLGKIERAIGLKLRGKDIGKPIEKGPRAK
B8: EMX1 (protein, UniProt Q04741 1-290, looked up)
Homeobox protein EMX1: MCLAGCTPRKAAAPGRGALPRARLPRTAPAAATMFQPAAKRGFTIESLVAKDGGTGGGTGGGGAGSHLLAAAASEEPLRPTALNYPHPSAAEAAFVSGFPAAAAAGAGRSLYGGPELVFPEAMNHPALTVHPAHQLGASPLQPPHSFFGAQHRDPLHFYPWVLRNRFFGHRFQASDVPQDGLLLHGPFARKPKRIRTAFSPSQLLRLERAFEKNHYVVGAERKQLAGSLSLSETQVKVWFQNRRTKYKRQKLEEEGPESEQKKKGSHHINRWRIATKQANGEDIDVTSND
B9: ELF3 (protein, UniProt P78545 1-371, looked up)
ETS-related transcription …: MAATCEISNIFSNYFSAMYSSEDSTLASVPPAATFGADDLVLTLSNPQMSLEGTEKASWLGEQPQFWSKTQVLDWISYQVEKNKYDASAIDFSRCDMDGATLCNCALEELRLVFGPLGDQLHAQLRDLTSSSSDELSWIIELLEKDGMAFQEALDPGPFDQGSPFAQELLDDGQQASPYHPGSCGAGAPSPGSSDVSTAGTGASRSSHSSDSGGSDVDLDPTDGKLFPSDGFRDCKKGDPKHGKRKRGRPRKLSKEYWDCLEGKKSKHAPRGTHLWEFIRDILIHPELNEGLMKWENRHEGVFKFLRSEAVAQLWGQKKKNSNMTYEKLSRAMRYYYKREILERVDGRRLVYKFGKNSSGWKEEEVLQSRN
B10: DPRX (protein, UniProt A6NFQ7 1-191, looked up)
Divergent paired-related …: MPGSEDLRKGKDQMHSHRKRTMFTKKQLEDLNILFNENPYPNPSLQKEMASKIDIHPTVLQVWFKNHRAKLKKAKCKHIHQKQETPQPPIPEGGVSTSVGLRNADTLPRLPNAAHPIGLVYTGHRVPSFQLILYPNLKVPANDFIGHRIVHFGCCRDPNIYCLYPILESQVCAPSFHSGSPACSSNQSRER
B11: ADNP (protein, UniProt Q9H2P0 1-1102, looked up)
Activity-dependent …: MFQLPVNNLGSLRKARKTVKKILSDIGLEYCKEHIEDFKQFEPNDFYLKNTTWEDVGLWDPSLTKNQDYRTKPFCCSACPFSSKFFSAYKSHFRNVHSEDFENRILLNCPYCTFNADKKTLETHIKIFHAPNASAPSSSLSTFKDKNKNDGLKPKQADSVEQAVYYCKKCTYRDPLYEIVRKHIYREHFQHVAAPYIAKAGEKSLNGAVPLGSNAREESSIHCKRCLFMPKSYEALVQHVIEDHERIGYQVTAMIGHTNVVVPRSKPLMLIAPKPQDKKSMGLPPRIGSLASGNVRSLPSQQMVNRLSIPKPNLNSTGVNMMSSVHLQQNNYGVKSVGQGYSVGQSMRLGLGGNAPVSIPQQSQSVKQLLPSGNGRSYGLGSEQRSQAPARYSLQSANASSLSSGQLKSPSLSQSQASRVLGQSSSKPAAAATGPPPGNTSSTQKWKICTICNELFPENVYSVHFEKEHKAEKVPAVANYIMKIHNFTSKCLYCNRYLPTDTLLNHMLIHGLSCPYCRSTFNDVEKMAAHMRMVHIDEEMGPKTDSTLSFDLTLQQGSHTNIHLLVTTYNLRDAPAESVAYHAQNNPPVPPKPQPKVQEKADIPVKSSPQAAVPYKKDVGKTLCPLCFSILKGPISDALAHHLRERHQVIQTVHPVEKKLTYKCIHCLGVYTSNMTASTITLHLVHCRGVGKTQNGQDKTNAPSRLNQSPSLAPVKRTYEQMEFPLLKKRKLDDDSDSPSFFEEKPEEPVVLALDPKGHEDDSYEARKSFLTKYFNKQPYPTRREIEKLAASLWLWKSDIASHFSNKRKKCVRDCEKYKPGVLLGFNMKELNKVKHEMDFDAEWLFENHDEKDSRVNASKTADKKLNLGKEDDSSSDSFENLEEESNESGSPFDPVFEVEPKISNDNPEEHVLKVIPEDASESEEKLDQKEDGSKYETIHLTEEPTKLMHNASDSEVDQDDVVEWKDGASPSESGPGSQQVSDFEDNTCEMKPGTWSDESSQSEDARSSKPAAKKKATMQGDREQLKWKNSSYGKVEGFWSKDQSQWKNASENDERLSNPQIEWQNSTIDSEDGEQFDNMTDGVAEPMHGSLAGVKLSSQQA
B12: AEBP2 (protein, UniProt Q6ZN18 2-517, looked up)
Zinc finger protein AEBP2: AAAITDMADLEELSRLSPLPPGSPGSAARGRAEPPEEEEEEEEEEEEAEAEAVAALLLNGGSGGGGGGGGGGVGGGEAETMSEPSPESASQAGEDEDEEEDDEEEEDESSSSGGGEEESSAESLVGSSGGSSSDETRSLSPGAASSSSGDGDGKEGLEEPKGPRGSQGGGGGGSSSSSVVSSGGDEGYGTGGGGSSATSGGRRGSLEMSSDGEPLSRMDSEDSISSTIMDVDSTISSGRSTPAMMNGQGSTTSSSKNIAYNCCWDQCQACFNSSPDLADHIRSIHVDGQRGGVFVCLWKGCKVYNTPSTSQSWLQRHMLTHSGDKPFKCVVGGCNASFASQGGLARHVPTHFSQQNSSKVSSQPKAKEESPSKAGMNKRRKLKNKRRRSLPRPHDFFDAQTLDAIRHRAICFNLSAHIESLGKGHSVVFHSTVIAKRKEDSGKIKLLLHWMPEDILPDVWVNESERHQLKTKVVHLSKLPKDTALLLDPNIYRTMPQKRLKRTLIRKVFNLYLSKQ
B13: DMRTA1 (protein, UniProt Q5VZB9 1-504, looked up)
Doublesex- and mab-3-related …: MERSQCGSRDRGVSGRPHLAPGLVVAAPPPPSPALPVPSGMQVPPAFLRPPSLFLRAAAAAAAAAAATSGSGGCPPAPGLESGVGAVGCGYPRTPKCARCRNHGVVSALKGHKRFCRWRDCACAKCTLIAERQRVMAAQVALRRQQAQEESEARGLQRLLCSGLSWPPGGRASGGGGRAENPQSTGGPAAGAALGLGALRQASGSATPAFEVFQQDYPEEKQEQKESKCESCQNGQEELISKSHQLYLGSSSRSNGVIGKQSIGSSISEYSNKPDSILSPHPGEQSGGEESPRSLSSSDLESGNESEWVKDLTATKASLPTVSSRPRDPLDILTKIFPNYRRSRLEGILRFCKGDVVQAIEQVLNGKEHKPDNRNLANSEELENTAFQRASSFSLAGIGFGTLGNKSAFSPLQTTSASYGGDSSLYGVNPRVGISPLRLAYSSAGRGLSGFMSPYLTPGLVPTLPFRPALDYAFSGMIRDSSYLSSKDSITCGRLYFRPNQDNP

System: HEK293FT cells transfected with TF library
Test: Screening of TF condensates based on fluorescent puncta
Assay type: cell-based
Details: Figure 1B numerical data; TF library screen, one value per transcriptional factor
Description: TF plasmids were automatically added to black-walled 384-well plates at 80 ng per well to reach a final concentration of 1.6 μg/ml. Polyethylenimine (PEI, Sigma) was then added to the plasmid-loaded plates at 240 ng per well (4.8 μg/ml). Subsequently, HEK293FT cells were seeded into the plate at 2000 cells per well. After 60 h, cells were cultured in medium with or without glucose for 12 h, and then fixed with 4% paraformaldehyde (PFA) at room temperature for 30 min. After three washes with PBS, fixed cells were permeabilized with 0.05% Triton X-100 for 15 min. Thereafter, cells were blocked with 5% BSA for 1 h, and then incubated overnight with anti-Flag (Sigma F3165, 1:200) and anti-GAL4 (Abbkine ABP57232, 1:200) primary antibodies at 4 °C. The cells were then gently washed with PBS, followed by being incubated with Alexa Fluor Plus 488 goat anti-mouse IgG secondary antibody (Thermo A32723, 1:400) or Alexa Fluor Plus 488 goat anti-rabbit IgG secondary antibody (Thermo A32731, 1:400) for 1 h. The plates were kept at 4 °C in the dark before being analyzed using an Opera System (Perkin Elmer). Fifty random fields per well were scanned and analyzed using the Columbus Plus Image Data Storage and Analysis System (Perkin Elmer).

| Molecule | Z score of condensed fraction |
| --- | --- |
| B1 | -0.5027 |
| B2 | 2.005 |
| B3 | 1.007 |
| B4 | 0.7932 |
| B5 | -0.7544 |
| B6 | -0.6608 |
| B7 | -0.3636 |
| B8 | -0.9497 |
| B9 | -0.7241 |
| B10 | -0.8656 |
| B11 | -0.6304 |
| B12 | 0.1647 |
| B13 | -0.1434 |

Reference: PMC11574045, “A cofactor-induced repressive type of transcription factor condensation can be induced by synthetic peptides to suppress tumorigenesis” (The EMBO Journal, 2024)
